Experimental data as given in the DeepSol protein solubility set.

experiment: soluble on expression in E. coli; label from the status in PepcDB or PDB records

Sequence	soluble on expression in E. coli
DGGTMENLSRRLKVTGDLFDIMSGQT	soluble
MAQHVKFHQYFFQWMQLYKLDAVRPVTYRKYEMSHRQLVTLAPDLKMADLSRLTYQQLLNDYAETHERQTTMDFHRHLKGSLIDALEEGFIDRDPTRKAIIKGIKHRQHKLEHHHHHH	soluble
MDESAALRAFQDALRTQRPEFGQFFLARLLGLDISYPDGQCLIVFEPQDFLFNPQGSLHGGIIATVMDISMGHLLNHVQGAGLTLEMKTQYLKAVHQGTVYCRGEFLQRGRSVSFLKSTLTDAQGEPLAMATSTWKALSPLEHHHHHH	soluble
MSPHYLRQVKESSGSRLIQQRLLHQQQPLHPEWAALAKKQLKGKNPEDLIWHTPEGISIKPLYSKRDTMDLPEELPGVKPFTRGPYPTMYTFRPWTIRQYAGFSTVEESNKFYKDNIKAGQQGLSVAFDLATHRGYDSDNPRVRGDVGMAGVAIDTVEDTKILFDGIPLEKMSVSMTMNGAVIPVLANFIVTGEEQGVPKEKLTGTIQNDILKEFMVRNTYIFPPEPSMKIIADIFEYTAKHMPKFNSISISGYHMQEAGADAILELAYTLADGLEYSRTGLQAGLTIDEFAPRLSFFWGIGMNFYMEIAKMRAGRRLWAHLIEKMFQPKNSKSLLLRAHCQTSGWSLTEQDPYNNIVRTAIEAMAAVFGGTQSLHTNSFDEALGLPTVKSARIARNTQIIIQEESGIPKVADPWGGSYMMECLTNDVYDAALKLINEIEEMGGMAKAVAEGIPKLRIEECAARRQARIDSGSEVIVGVNKYQLEKEDTVEVLAIDNTSVRNRQIEKLKKIKSSRDQALAERCLAALTECAASGDGNILALAVDASRARCTVGEITDALKKVFGEHKANDRMVSGAYRQEFGESKEITSAIKRVHKFMEREGRRPRLLVAKMGQDGHDRGAKVIATGFADLGFDVDIGPLFQTPREVAQQAVDADVHAVGVSTLAAGHKTLVPELIKELNSLGRPDILVMCGGVIPPQDYEFLFEVGVSNVFGPGTRIPKAAVQVLDDIEKCLEKKQQSVAENLYFQSHHHHHHDYKDDDDK	soluble
MAHHHHHHMGDESNAIGQEALLYDKMFRVMRTVGEMMCDRKYQVADKIIPSSVEEFKDWYTDPREGVIYRDRMTVPCERIGVSQRSRAMVFFSEGLSMETMKRYHTQASEANCDRVIIVVQGRINAIVKRHVEDINRSSLGLKIQLFDEDDLVVNITHHELVPKHTQLEDEEVKEMLQAHALELSALPRILSTDPVAAYLGLERGRVVRIERKSMSAGFYVTYRQVV	not soluble
MGSDKIHHHHHHMRRLPHVTWLRSFEAAARHSSFSAAAEELHLTPAAVSQQIRQLEHHLGFQLFKRLPKGVELTDIGQAYAIPVRKSFVQMQEATDGLFRVQSKSVLRVRCSISFAALILAPLLRDFAEIHPDIDVELSTAVWSDRMEGAGVDLDIRYGAACWPEQNVHPLPVEEATLVCHPDYAAQLGSALDPAWLGAADIVQIVGSETDWDRYLRLCGIDTPRPRHWMKADSSLIALQILSAGRGCALISRSFARQALSEGRLVAPFDLSLPMQESFVLVERDDLRENPGLRKLVDWLLTQRL	not soluble
MSLSDKHIKQTVLNSNDNRISPSHVCDIFLPQNGLSERWKAFTRRRFVIAETGFGTGLSFLTACQQFTQFRQANPTATVKELHFISFEQHPLTKSDLIKATEKWPEFAHFSQQLHAHYPPAVSDCHRIVLDEGLITLDLWFGNITDSMPQVWTNDDGIVDAWFTDGFATESNAALLKSLTIINSIAILARENSTIHAITYHQGNQQDVLEQSLTEAGFDMTESHNEGHHHHHH	soluble
MSLSTYILNTNDKARERLSLQHQLYAKSSLDLLSEVGPSAAMTALEIGCGSGDMTLELAKLIGREGSLLTIDLSQDQLDHTQQRTRTYSNIRFKVWDVNHLSDLGEKFDLIYCRMVLHHVADARSVILQMKNCLNSGGFVVCEEPSLFDSTFCSPPSPSYDQFTQWARSCFSKSNRDFQIAHRLEQEFSSCGFEIEHCSLFQPLLRTNKEKLIYSMALDDLTPQLLELGIAKREEIKQLHNELEDLAKTNSTMCWIRMHKIIAKLNEGHHHHHH	soluble
MQIDFNSDMGESFGAWTIGDGVDTELMAFISSANIATGFHAGDPSTMRRTIEQAKRLGVAIGAHPGFRDLVGFGRRHINAPAQELVDDMLYQLGALRELARVQGVPLQHFKPHGALYMHLARDEEAARLLVENLQRLEPDLLLYCMPGSVICNVAQELGQPVVREFYADRAYDLSGSIVFTRNVRAHDPAEVAARVIRACQQGLVRTVEGDDLAIQFDSICLHSDTPGALALAQATRQALDGAGIEVRTPRLEHHHHHH	not soluble
MGSDKIHHHHHHMVKIKEGFKGERLVSLPEELLASYRREPLINNLYVRKIGFFPRVKYHFLQKEHGCDYAMLIYCTEGKGWYRILGKQYTVEKYQYIIIPPGIPYSFGADEGDPWTIYWLHFQGKLCDQFLPSHPVPVTISPNEYSRLQDRLRLFEEIYSSFSMGYIKEYMIYSSMCLYNFLASFIYLEQFRHIMIPSQKEYPFTARVIHYMRENIQQNLTLKELASYFKYSPSHFSALFFGETGVSPMNYFIRLKIQKACEYIELTNMKLNEIATHLGFEDAAYFSRTFTKVMGCSPSVYRKKEMEI	not soluble
MGSDKIHHHHHHMMSEEKILSVDFTQEDAYTEILPRSPLVSSYHAQWQGLRLDVHQQPGHETPEHSPQQHVLTVSLEQQIVRSERILDGRLQYENIAKGDVAIIPAQTRHISRWQSEAKFLVLSMEPAFFTRMVIEAGDLQKIEIKPRFAAPDPLIQQIGLALQTELESEHKGSSIYIESLTTTLCIHLLKHYCVTGGTILDDHHHKGLSHWKLRQAISYIHENLDQDLTLVDISTAVGMSMYYFSRQFKQSTGFAPHQYVMNCRIERAKKLLGSTNKTIEQICTQVGFQSQSHFTNVFRKLMGITPRVYREQVKT	not soluble
MSQSLFSLAFGVGTQNRQEAWLEVFYALPLLKPSSEIVAAVAPILGYAAGNQALTFTSQQAYQLADALKGIDAAQSALLSRLAESQKPLVATLLAEDAAPSSTAEAYLKLHLLSHRLVKPHAVNLSGIFPLLPNVAWTNIGAVDLAELAELQLEARLKGKLLEVFSVDKFPKMTDYVVPAGVRIADTARVRLGAYIGEGTTVMHEGFVNFNAGTEGPGMIEGRVSAGVFVGKGSDLGGGCSTMGTLSGGGNIVISVGEGCLIGANAGIGIPLGDRNIVEAGLYITAGTKVALLDEQNALVKVVKARDLAGQPDLLFRRNSQNGAVECK	not soluble
MGSDKIHHHHHHACTDDSNDVVATTSEVIEQAEVPFSVVLKAMNSDGNDITTKGEVNGATLFVFDQNNDFFEQINVNKSTILSRRAIDINCPNSNDITVIAWSGINSGNEEISNMSKANIISDLQVSLKENNGIANIPSDLFYGQVTLHKNSSTKSTVSNELQIIRKTSIFQLSTKGLIKYLGSNAGNFEYRIKNTKSSLDYNGNPTGEEVEFAFPASFDEKGNLTTETQAIFPAQNITVELYKDGNLIFSSEKDKNGELFAATPGKRTEITFKYSGEVSANITIADWATVIQHITMN	not soluble
MAHHHHHHMGQSKTKLQVVMCGLDNSGKTTIINQVKPAQSSSKHITATVGYNVETFEKGRVAFTVFDMGGAKKFRGLWETYYDNIDAVIFVVDSSDHLRLCVVKSEIQAMLKHEDIRRELPGGGRVPFLFFANKMDAAGAKTAAELVEILDLTTLMGDHPFVIFASNALKGTGVHEGFSWLQETASRQSGKAGTKRG	soluble
MSSGKDFFVHSHALCESENIGKDSRVWAFAHILPGARLGSECNVCDNVFIENDVIIGDRVTLKCGVQVWDGITIEDDVFIGPNATFTNDLFPRSKVYPQTFARTIIRKGASLGANCTILPGITIGINAMVGAGAVVTRSVPPNAIVVGNPAKIIGYVDAKPVNANSETRAEQKAPGVTATSVKNVTLHTMNEVADIRGSLSAGEFERSVPFKTERYFLVYDVPTAETRGEHAHRICHQFLVAVKGSVHVVADDGVNREEFILDKPNQGIHLPPMTWGIQYRYSQDAVLLVFASHYYDAGDYIRNYEEFKSLIANAELEHHHHHH	soluble
MASWSHPQFEKGALEDPRSLYDLPPYGDATLLYFSDLHGQAFPHYFMEPPNLIAPKPLMGRPGYLTGEAILRYYGVERGTPLAYLLSYVDFVELARTFGPIGGMGALTALIRDQKARVEAEGGKALVLDGGDTWTNSGLSLLTRGEAVVRWQNLVGVDHMVSHWEWTLGRERVEELLGLFRGEFLSYNIVDDLFGDPLFPAYRIHRVGPYALAVVGASYPYVKVSHPESFTEGLSFALDERRLQEAVDKARAEGANAVVLLSHNGMQLDAALAERIRGIDLILSGHTHDLTPRPWRVGKTWIVAGSAAGKALMRVDLKLWKGGIANLRVRVLPVLAEHLPKAEDVEAFLKAQLAPHQDHLFTPLAVSETLLYKRDTLYSTWDQLVGEAVKAIYPEVEVVFSPAVRWGTTILPGQAITWDHLYAYTGFTYPELYLFYLRGAQIKAVLEDIASNVFTSDPFYQQGGDVSRVFGLRYVLDPDAPTGERVREVEVGGRPLDPNRRYLAAAYGGRLQRVGEAKPGYEPRPIYEVLAEYLRSVGRVRVRPEPNVKVIGRNYRLPEVTG	soluble
MQLQLICEDPSQQSHLDELAARWQLSHTDESDFALVLTAERLELRKVDEPKLGAIFVDLIGGAVGHRRKFGGGKGQAIAKAAGLNKGATPTVLDGTAGLGRDAFVLASLGCKVQMVERHPVVAALLDDGLARAKQDPEIGTWVSERMSLIHASSHDALDQLAQDREFVKPDVVYLDPMYPHPENKKKSALVKKEMRVFQSLVGADLDADGLLEPALALATKRVVVKRPDYANWLNEQKPSMAIETKKNRFDVYVKASMALEHHHHHH	soluble
MSLNYTTQMDAAKKGIITKEMQVVSEKEGINIETLMNLMAEGKIVIPANKNHKSISAEGVGQGLRTKINVNLGISKDCANIELELEKVKKAIDMNAESIMDLSNYGKTYDFRKRLVEVSTAMIGTVPMYDVVGFYDKELKDITVDEFFEVVEKHAKDGVDFVTIHAGLNRETIETFRRNKRLTNIVSRGGSLLFAWMELNNRENPFYEYFDRLLDICEKYDLTLSLGDACRPGSIADATDAVQIKELITLGELTKRAWERNVQVIIEGPGHMAMNEIEANVLLEKKLCHGAPFYVLGPIVTDIAPGYDHITSAIGGAMAASYGADFLCYVTPAEHLRLPNLEDVREGIVATKIAAHAADIAKGISGARDIDNKMSDARKRLDWDEMFSLAIDSEKAIRYRKESTPEHKDSCTMCGKMCSIRNMNKILEGKDINLLREGHHHHHH	soluble
MWRSSLMCLPDTSWGAMETTFVLDALEQALWARRPSGTVHHSDKGSQYVSLAYTQRLKEAGLLASTGSTGDSYDNAMAESINGLYKAEVIHRKSWKNRAEVELATLTWVDWYNNRRLLERLGHTPPAEAEKAYYASIGNDDLAA	not soluble
MTKIFAYAIREDEKPFLKEWEDAHKDVEVEYTDKLLTPETVALAKGADGVVVYQQLDYIAETLQALADNGITKMSLRNVGVDNIDMAKAKELGFQITNVPVYSPNAIAEHAAIQAARILRQDKAMDEKVARHDLRWAPTIGREVRDQVVGVVGTGHIGQVFMQIMEGFGAKVITYDIFRNPELEKKGYYVDSLDDLYKQADVISLHVPDVPANVHMINDESIAKMKQDVVIVNVSRGPLVDTDAVIRGLDSGKIFGYAMDVYEGEVGIFNEDWEGKEFPDARLADLIARPNVLVTPHTAFYTTHAVRNMVVKAFDNNLELVEGKEAETPVKVG	soluble
